In article PMC6745501, “Plant photoreceptors and their signaling components compete for COP1 binding via VP peptide motifs” (The EMBO Journal, 2019):

T1: Arabidopsis COP1^349–675 WD40 domain (Arabidopsis, UniProt P43254 349-675)
T1 construct: COP1 (CONSTITUTIVELY PHOTOMORPHOGENIC 1) E3 ubiquitin ligase, Arabidopsis, WD40 domain, residues 349-675; also called COP1 WD40 domain; COP1 WD40; not shown: His10, N-terminal, cleaved; Twin-Strep, N-terminal, cleaved
T1 sequence (looked up): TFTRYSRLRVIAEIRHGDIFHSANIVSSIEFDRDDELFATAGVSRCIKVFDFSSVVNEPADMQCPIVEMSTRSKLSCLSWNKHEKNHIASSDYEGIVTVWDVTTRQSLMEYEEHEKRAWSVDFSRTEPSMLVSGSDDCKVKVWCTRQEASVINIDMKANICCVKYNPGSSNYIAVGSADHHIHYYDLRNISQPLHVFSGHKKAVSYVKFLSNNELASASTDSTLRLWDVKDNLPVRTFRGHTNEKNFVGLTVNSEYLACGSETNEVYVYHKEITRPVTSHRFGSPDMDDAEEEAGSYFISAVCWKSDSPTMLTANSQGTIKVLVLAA

T2: COP1^349–675,Lys422Ala WD40 domain (Arabidopsis, UniProt P43254 349-675, Lys422Ala)
T2 construct: COP1, Arabidopsis, WD40 domain, residues 349-675, Lys422Ala; also called COP1^Lys422Ala; not shown: His10, N-terminal, cleaved; Twin-Strep, N-terminal, cleaved
T2 sequence (looked up): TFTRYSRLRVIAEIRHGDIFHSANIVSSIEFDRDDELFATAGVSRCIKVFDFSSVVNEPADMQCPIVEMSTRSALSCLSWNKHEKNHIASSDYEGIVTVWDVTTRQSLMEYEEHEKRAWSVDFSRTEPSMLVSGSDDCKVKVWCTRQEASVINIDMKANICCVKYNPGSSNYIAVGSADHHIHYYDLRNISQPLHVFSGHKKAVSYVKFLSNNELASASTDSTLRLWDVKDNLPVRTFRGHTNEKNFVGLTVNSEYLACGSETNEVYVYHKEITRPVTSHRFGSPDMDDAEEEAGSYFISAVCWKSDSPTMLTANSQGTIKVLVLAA


How the values were obtained:
[1] = molecular target: the molecule itself; experiment: SEC; purified recombinant chimeric UVR8 proteins alone, in the absence of UV-B
[2] = molecular target: T1, Arabidopsis COP1^349–675 WD40 domain; experiment: crystal structure; co-crystals, 5 mg/ml COP1 with 3- to 10-fold molar excess of peptide; 1.25 M sodium malonate pH 7.5; 20°C; details: both partners purified
[3] = molecular target: T1, Arabidopsis COP1^349–675 WD40 domain; experiment: ITC; VP peptide (titrant, 500-3,000 μM) injected into COP1 WD40 in the cell at about 10-fold lower concentration; 150 mM NaCl, 20 mM HEPES 7.4, 2 mM BME; 25°C; one-site binding model; details: both partners purified
[4] = molecular target: T2, COP1^349–675,Lys422Ala WD40 domain; experiment: as above; details: both partners purified

| Binder | binding result [2] | stoichiometry N [4] | stoichiometry N [3] | other results |
| --- | --- | --- | --- | --- |
| UVR8^HY5VP chimera (recombinant) (other) MAEDMAADEVTAPPRKVLIISAGASHSVALLSGDIVCSWGRGEDGQLGHGDAEDRPSPTQLSALDGHQIVSVTCGADHTVAYSQSGMEVYSWGWGDFGRLGHGNSSDLFTPLPIKALHGIRIKQIACGDSHCLAVTMEGEVQSWGRNQNGQLGLGDTEDSLVPQKIQAFEGIRIKMVAAGAEHTAAVTEDGDLYGWGWGRYGNLGLGDRTDRLVPERVTSTGGEKMSMVACGWRHTISVSYSGALYTYGWSKYGQLGHGDLEDHLIPHKLEALSNSFISQISGGWRHTMALTSDGKLYGWGWNKFGQVGVGNNLDQCSPVQVRFPDDQKVVQVSCGWRHTLAVTERNNVFAWGRGTNGQLGIGESVDRNFPKIIEALSVDGASGQHIESSNIDPSSGKSWVSPAEEIRRVPEFTGLTDGSSKGNGGDISVPQTDVKRVRI |  |  |  | stoichiometry N [1]: 2 |
| GFGVVPSF (peptide, UniProt Q9SK53 287-294, looked up, COL3/BBX4 transcription factor, residues 287-294 (holds Phe288); also called COL3 VP peptide; COL3 peptide; source: synthetic peptide (Peptide Specialty Labs GmbH)) [COL3^287–294 VP peptide] |  | 0.9 | 0.75 |  |
| GYGIVPSF (peptide, UniProt Q39057 366-373, looked up, CONSTANS (CO/BBX1) transcription factor, residues 366-373; also called CO VP peptide; CONSTANS; source: synthetic peptide (Peptide Specialty Labs GmbH)) [CO^366–373 VP peptide] |  | 0.89 | 1.03 | fold stronger binding than to wild type COP1 [4]: ~4 fold |
| UVR8^TRIB1VP chimera (recombinant) (other) MAEDMAADEVTAPPRKVLIISAGASHSVALLSGDIVCSWGRGEDGQLGHGDAEDRPSPTQLSALDGHQIVSVTCGADHTVAYSQSGMEVYSWGWGDFGRLGHGNSSDLFTPLPIKALHGIRIKQIACGDSHCLAVTMEGEVQSWGRNQNGQLGLGDTEDSLVPQKIQAFEGIRIKMVAAGAEHTAAVTEDGDLYGWGWGRYGNLGLGDRTDRLVPERVTSTGGEKMSMVACGWRHTISVSYSGALYTYGWSKYGQLGHGDLEDHLIPHKLEALSNSFISQISGGWRHTMALTSDGKLYGWGWNKFGQVGVGNNLDQCSPVQVRFPDDQKVVQVSCGWRHTLAVTERNNVFAWGRGTNGQLGIGESVDRNFPKIIEALSVDGASGQHIESSNIDPSSGKSWVSPAESDQIVPEY |  |  |  | stoichiometry N [1]: 2 |
| EDQMVPSIT (peptide, UniProt Q43125 544-552, looked up, cryptochrome 1 (CRY1), Arabidopsis blue-light photoreceptor, residues 544-552 (holds Asp545); also called CRY1 VP peptide; CRY1 peptide; source: synthetic peptide (Peptide Specialty Labs GmbH)) [CRY1^544–552 VP peptide] |  | 0.98 | 0.99 |  |

Second part, led by results:

| binding result [2] | stoichiometry N [4] | stoichiometry N [3] | Binder | other results |
| --- | --- | --- | --- | --- |
| binds |  |  | ELLMVPDM (peptide, UniProt Q8W191 27-34, looked up, HYH (HY5 homolog) transcription factor, residues 27-34; also called HYH peptide; source: synthetic peptide (Peptide Specialty Labs GmbH)) [HYH^27–34 VP peptide] |  |
|  | 0.87 |  | RYAVVPDE (peptide, UniProt Q9FN03 406-413, looked up, also called UVR8 VP peptide; UVR8 peptide; source: synthetic peptide (Peptide Specialty Labs GmbH)) [UVR8^406–413 VP peptide] | binding result [3]: binds; fold increase in binding affinity against wild type COP1 [4]: ~10 fold |
| binds |  |  | YLQIVPEI (peptide, UniProt Q9FE22 57-64, looked up, LONG HYPOCOTYL IN FAR-RED 1 (HFR1) transcription factor, residues 57-64; also called HFR1 peptide; LONG HYPOCOTYL IN FAR‐RED 1; source: synthetic peptide (Peptide Specialty Labs GmbH)) [HFR1^57–64 VP peptide] |  |
|  |  | 1.04 | NDQQVPSAV (peptide, UniProt Q96524 527-535, looked up, also called CRY2 VP peptide; source: synthetic peptide (Peptide Specialty Labs GmbH)) [CRY2^527–535 VP peptide] | fold reduction of binding against wild type COP1 [4]: ~30 fold |
| binds |  |  | EHFIVPDL (peptide, UniProt Q96288 240-247, looked up, SALT TOLERANCE (STO/BBX24) transcription factor, residues 240-247; also called STO peptide; SALT TOLERANCE (STO/BBX24); source: synthetic peptide (Peptide Specialty Labs GmbH)) [STO^240–247 VP peptide] |  |
